Reference: US20250312473A1, “B7H3 ANTIBODY DRUG CONJUGATES” (BEONE MEDICINES I GMBH, priority 2022, published 2025)

Biological target: T1, ECD of human 4Ig-B7H3 (Homo sapiens, UniProt Q5ZPR3)
T1 construct: ECD of human 4Ig-B7H3 (Sinobiological, Cat: 11188-H08H); purchased Sinobiological 11188-H08H
T1 sequence (Q5ZPR3 29-466 limits assumed): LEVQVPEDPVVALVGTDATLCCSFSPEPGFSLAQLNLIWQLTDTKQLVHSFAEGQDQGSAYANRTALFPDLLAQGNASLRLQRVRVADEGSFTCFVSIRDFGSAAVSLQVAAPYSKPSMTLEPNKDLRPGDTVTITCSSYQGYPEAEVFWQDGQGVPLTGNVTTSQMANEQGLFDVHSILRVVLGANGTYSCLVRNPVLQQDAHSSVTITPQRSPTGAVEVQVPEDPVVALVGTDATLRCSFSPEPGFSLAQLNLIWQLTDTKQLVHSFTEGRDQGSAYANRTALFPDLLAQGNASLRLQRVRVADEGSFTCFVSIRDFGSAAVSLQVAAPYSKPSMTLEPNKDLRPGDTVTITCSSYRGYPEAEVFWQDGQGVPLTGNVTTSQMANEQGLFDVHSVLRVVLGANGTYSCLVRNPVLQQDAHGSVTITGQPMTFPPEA
Assay: SPR affinity determination
Type: binding
Source text: For affinity determination, antibodies were captured by anti-human Fc surface, and used in an affinity assay based on surface plasmon resonance (SPR) technology. The results of SPR-determined binding profiles of humanized antibodies to ECD of human 4Ig-B7H3 (Sinobiological, Cat: 11188-H08H) were summarized in Table 20.

B1: BGA-4348: "1^st version of humanized antibody BGA-4348", CDR-grafted from BGA-3295, human IgG1 variant format (antibody)
heavy: QIQLVQSGAEVKKPGSSVKVSCKASGYTFTNYDINWVRQAPGQGLEWMGWIYPGDGSAYYNEKFKGRATITADKSTSTAYMELSSLRSEDTAVYYCARWGYGGVPFAYWGQGTLVTVSSASTKGPSVFPLAPSSKSTSGGTAALGCLVKDYFPEPVTVSWNSGALTSGVHTFPAVLQSSGLYSLSSVVTVPSSSLGTQTYICNVNHKPSNTKVDKKVEPKSCDKTHTCPPCPAPPAAGPSVFLFPPKPKDTLMISRTPEVTCVVVDVSHEDPEVKFNWYVDGVEVHNAKTKPREEQYNSTYRVVSVLTVLHQDWLNGKEYKCKVSNKALAAPIEKTISKAKGQPREPQVYTLPPSRDELTKNQVSLTCLVKGFYPSDIAVEWESNGQPENNYKTTPPVLDSDGSFFLYSKLTVDKSRWQQGNVFSCSVMHEALHNHYTQKSLSLSPGK
light: DIVMTQSPDSLAVSLGERATINCKSSQSLLNDINQKNYLAWYQQKPGQSPKLLVYFASTGVSGVPDRFSGSGSGTDFTLTISSLQAEDVAVYYCQQYYSFPWTFGGGTKVEIK
modifications: left off: a dimerising Fc or GST
notes: "1st version of humanized antibody BGA-4348", CDR-grafted from BGA-3295, human IgG1 variant format
**Q.** For B1, which “koff” value (Test 1) is on record?
**A.** Its value is 1.04e-05 s⁻¹.

**Q.** And the “kon” value (Test 1)?
**A.** Its value is 31500 M⁻¹ s⁻¹.

**Q.** What about the “koff” value (Test 2) of the same molecule?
**A.** The value was 0.000227 s⁻¹.

**Q.** What about the “kon” value (Test 2) of the same molecule?
**A.** The value was 369000 M⁻¹ s⁻¹.

**Q.** And the Kd (read-out: dissociation constants)?
**A.** Its Kd is 0.6 nM.
